These results are taken from patent publication US12416034B2, “Recombinant production of steviol glycosides” (EVOLVA SA, priority 2011, dated 2025).

The term Km denotes the concentration of substrate that gives half-maximal velocity. In general, Vmax refers to the top rate of the reaction or transport when substrate is in excess.

Data set [1] can be described thus: Limiting factor in RebA to RebD reaction. In kind it is biochemical. The method, then:
Under the conditions described above for EUGT11, approximately 25% of the RebA administered was converted to RebD. The limiting factor in these conditions could be either the enzyme, UDP-glucose or RebA. Experiments were set up to distinguish between these possibilities. A standard assay was allowed to run its course during 4 hours. This was followed by addition of either extra RebA substrate, extra enzyme, extra UDP-glucose or extra enzyme and UDP-glucose.
Experiments were conducted to examine the limit to this benefit of adding bolus amounts of UDP-glucose and fresh enzyme in the conversion of RebA to RebD reaction. Additional enzyme or enzyme and UDP-glucose were added after 1, 6, 24 and 28 hours. In the case of the addition of both extra EUGT11 and UDP-glucose, a conversion of more than 70% was achieved. […] Alternatively, as explained below, EUGT11 may be metabolizing the UDP-glucose.

Data set [2] can be described thus: Enzyme kinetics with UDP-glucose as substrate. The format is biochemical. The method, then:
A series of experiments were performed to determine kinetic parameters of EUGT11 and 91D2e-b. For both enzymes, 100 μM RebA, 300 μM UDP-glucose, and 10 U/mL Alkaline Phosphatase (Fermentas/Thermo Fisher, Waltham, MA) were used in the reactions. For EUGT11, the reactions were performed at 37° C. using 100 mM Tris-HCl, pH 7, and 2% enzyme. For 91D2e-b, the reactions were performed at 30° C. using 20 mM Hepes-NaOH, pH 7.6, 20% (by volume) enzyme. The initial velocities (V0) were calculated in the linear range of a product versus time plot.
Vmax and KM parameters were determined from the curve-fit Lineweaver-Burk data, calculated from the x- and y intercepts (x=0, y=1/Vmax) and (y=0, x=−1/KM). Additionally, the same parameters also were calculated by a non-linear least squares regression, using the SOLVER function in Excel. The results obtained with both methods for EUGT11 and RebA are presented in Table 12, along with all the kinetic parameters of this example. Kcat is calculated based on Vmax divided by the approximate amount of protein in the assay.
In order to investigate the influence of UDP-glucose concentration in the glycosylation reaction, as well as the affinity of EUGT11 for UDP-glucose, similar kinetics analysis were performed. EUGT11 was incubated with increasing amounts of UDP-glucose (20 μM, 50 μM, 100 μM, and 200 μM), maintaining an excess of RebA (500 μM).
In the case of UGT91D2e-b, RebA concentrations assayed were 50 μM, 100 μM, 200 μM, 300 μM, 400 μM and 500 μM. Concentration of UDP-glucose was always three times the concentration of RebA and incubation was performed at 30° C., in the reaction conditions described above for UGT91D2e-b. Additionally, kinetic parameters of UGT91D2e-b towards UDP-glucose were determined. UGT91D2e-b was incubated with increasing amounts of UDP-glucose (30 μM, 50 μM, 100 μM, and 200 μM), maintaining an excess of RebA (1500 μM). incubation was performed at 30° C., in optimal conditions for UGT91D2e-b.

The nature of data set [3]: In vitro transcribed and translated UGTs incubated with steviol, LC-MS. In kind it is biochemical. The method, then: (§1) EUGT11 was produced by in vitro transcription and translation, and incubated with various substrates in the RebD pathway. Similar experiments were carried out using in vitro transcribed and translated UGT91D2e. […] Compounds 1-3 were identified solely by mass and expected retention time. The numbers shown in FIG. 3 are the average peak height of the indicated steviol glycoside obtained from a LC-MS chromatogram, and, although not quantitative, can be used to compare the activity of the two enzymes. […] Both enzymes were able to convert steviol 19-O-monoglucoside (SMG) to compound 1, with EUGT11 being about ten times more efficient than UGT91D2e at converting 19-SMG to compound 1.

Data set [4] can be described thus: In vitro transcribed and translated UGTs incubated with RebA and UDP-glucose, LC-MS. In kind it is biochemical. The method, then:
In vitro transcription and translation of these genes was performed, and the resulting UGTs incubated with RebA and UDP-glucose. Following incubation, the reactions were analyzed by LC-MS. […] See LC-MS chromatograms in FIG. 4. As shown in the left panel of FIG. 4, UGT91D2e produced a trace amount of RebD when RebA was used as the feedstock.
as §1
Both enzymes were able to convert RebA to RebD. However, EUGT11 was approximately 30 times better at converting RebA to RebD. Overall, it appears that EUGT11 produces more product than UGT91D2e in all reactions (with similar time, concentrations, temperature, and purity of enzyme) except the conversion of rubusoside to stevioside.

Data set [5] is described as follows: Denaturation temperature by differential scanning calorimetry (DSC). The format is physicochemical. The following applies: 6HIS-purified enzymes, 91D2e-b GST-purified. The method, then: To assess the thermal stability of EUGT11 and to compare it with the other UGTs in the steviol glycosylation pathway, denaturation temperatures of the proteins were determined using differential scanning calorimetry (DSC). Use of DSC thermograms to estimate denaturation temperatures, TD, is described, for example, by E. Freire in Methods in Molecular Biology 1995, Vol. 40 191-218. DSC was performed (using 6HIS-purified EUGT11, yielding an apparent TD of 39° C.; while when GST-purified 91D2e-b was used, the measured TD was 79° C. For reference, the measured TD when using 6HIS-purified UGT74G1, UGT76G1 and UGT85C2 was 86° C. in all cases. One of skill in the art will recognize that enzyme immobilization or addition of thermal protectants can be added to the reactions to improve stability of the protein. Non-limiting examples of thermal protectants include trehalose, glycerol, ammonium sulphate, betaine, trimethylamine oxide, and proteins.

B1: EUGT11: UDP glycosyl transferase from Oryza sativa (GenBank AC133334), SEQ ID NO:152 (protein, listed as Oryza sativa)
chain: MDSGYSSSYAAAAGMHVVICPWLAFGHLLPCLDLAQRLASRGHRVSFVSTPRNISRLPPVRPALAPLVAFVALPLPRVEGLPDGAESTNDVPHDRPDMVELHRRAFDGLAAPFSEFLGTACADWVIVDVFHHWAAAAALEHKVPCAMMLLGSAHMIASIADRRLERAETESPAAAGQGRPAAAPTFEVARMKLIRTKGSSGMSLAERFSLTLSRSSLVVGRSCVEFEPETVPLLSTLRGKPITFLGLMPPLHEGRREDGEDATVRWLDAQPAKSVVYVALGSEVPLGVEKVHELALGLELAGTRFLWALRKPTGVSDADLLPAGFEERTRGRGVVATRWVPQMSILAHAAVGAFLTHCGWNSTIEGLMFGHPLIMLPIFGDQGPNARLIEAKNAGLQVARNDGDGSFDREGVAAAIRAVAVEEESSKVFQAKAKKLQEIVADMACHERYIDGFIQQLRSYKD
Take B1: the “conversion of RebA to RebD” value in data set [1] (extra EUGT11 and UDP-glucose added after 1, 6, 24 and 28 hours) is “more than 70%”. For the same molecule, the “RebA converted to RebD” value in data set [1] (standard conditions for EUGT11) was “approximately 25%”. In data set [2] (Lineweaver-Burk plot), the Kcat is 0.202 s⁻¹, the Km stood at 118 µM and the Vmax was 0.78 µM/min. In data set [2] (Nonlinear Least Square Fit), the Kcat worked out at 0.2053 s⁻¹, the Km stood at 130 µM and the Vmax came out at 0.79 µM/min. Moreover, in data set [3], the “use of steviol as a substrate” value is “not able to use steviol as a substrate”. In addition, the “amount of RebD produced when RebA was used as the feedstock” value in data set [4] (LC-MS chromatograms, FIG. 4) is recorded as “significant amount”. For the same molecule, the “efficiency at converting RebA to RebD compared with UGT91D2e” value in data set [4] (in vitro transcribed and translated enzymes, preliminary quantification) is recorded as “approximately 30 times”. The “denaturation temperature TD” value in data set [5] amounted to 39 °C.
